# Experimental data: patent US20260174875A1 (Novo Nordisk A/S, priority 2023, published 2026)
# Square brackets hold non-standard residues; d marks the D form. Chem. 27 = not defined here; Chem. 28 = not defined here; Chem. 29 = not defined here; Aib = CC(C)(N)C(=O)O
# T1: human amylin-3(a) receptor (human, UniProt P30988 25-474; O60896 24-148)
# T1 sequence (looked up) 1: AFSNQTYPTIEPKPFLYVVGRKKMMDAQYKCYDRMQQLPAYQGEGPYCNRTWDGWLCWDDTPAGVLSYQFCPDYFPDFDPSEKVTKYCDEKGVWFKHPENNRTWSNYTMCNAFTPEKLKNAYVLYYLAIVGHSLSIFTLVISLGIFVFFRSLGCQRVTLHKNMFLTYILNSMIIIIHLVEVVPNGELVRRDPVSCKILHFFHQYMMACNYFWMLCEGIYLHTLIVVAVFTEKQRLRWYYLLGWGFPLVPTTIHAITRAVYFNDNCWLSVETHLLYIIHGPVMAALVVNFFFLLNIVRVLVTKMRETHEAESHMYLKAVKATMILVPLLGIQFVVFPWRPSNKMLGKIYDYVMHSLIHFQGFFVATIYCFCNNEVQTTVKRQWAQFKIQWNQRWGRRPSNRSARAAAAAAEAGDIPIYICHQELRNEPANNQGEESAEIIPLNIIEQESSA
# T1 sequence (looked up) 2: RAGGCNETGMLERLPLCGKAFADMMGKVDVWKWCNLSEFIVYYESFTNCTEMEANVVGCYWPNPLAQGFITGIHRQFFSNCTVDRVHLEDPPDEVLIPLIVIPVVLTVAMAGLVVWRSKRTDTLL
# T2: human GIP receptor (human, UniProt P48546 22-466)
# T2 sequence (looked up): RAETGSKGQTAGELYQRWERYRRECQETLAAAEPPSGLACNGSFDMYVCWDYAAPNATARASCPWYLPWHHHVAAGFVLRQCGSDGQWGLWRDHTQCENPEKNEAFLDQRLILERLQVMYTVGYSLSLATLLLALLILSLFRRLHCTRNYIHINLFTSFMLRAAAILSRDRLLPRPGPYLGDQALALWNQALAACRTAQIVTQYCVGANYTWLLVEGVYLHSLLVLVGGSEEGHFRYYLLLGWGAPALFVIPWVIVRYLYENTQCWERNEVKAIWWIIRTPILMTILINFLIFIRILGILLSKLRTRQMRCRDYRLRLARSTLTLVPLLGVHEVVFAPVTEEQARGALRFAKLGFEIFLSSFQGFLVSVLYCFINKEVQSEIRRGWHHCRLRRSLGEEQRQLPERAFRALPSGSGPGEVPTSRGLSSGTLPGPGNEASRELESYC
# Tests used:
# Assay in all cases: cell-based or functional assay
# [1] = target: T3, human GLP-1 receptor (human, UniProt P43220 24-463)
# [2] = target: T1, human amylin-3(a) receptor
# [3] = target: T2, human GIP receptor
# [4] = target: T3, human GLP-1 receptor; remark: listed apart in the source
# [5] = target: T1, human amylin-3(a) receptor; remark: listed apart in the source
# [6] = target: T2, human GIP receptor; remark: listed apart in the source
Binder,"hGLP-1R Potency, 1% HSA, EC50 [pM] [1]","hAMYR3 Potency, 1% HSA, EC50 [pM] [2]","hGIPR Potency, 1% HSA, EC50 [pM] [3]","hGLP-1R Potency, no HSA, EC50 [pM] [4]","hAMYR3 Potency, no HSA, EC50 [pM] [5]","hGIPR Potency, no HSA, EC50 [pM] [6]"
Compound 106 (reading uncertain) peptide: H[Aib]HGTFTSDYSILLEEQAAREFIEWLLAGGPSSGALQAPGQAPGASHLSTAQTARLSAELHRLK(Chem. 28)TLPRTETGSGSP-NH2,11.1 pM,31.2 pM,10.3 pM,3.33 pM,2.07 pM,4.8 pM
Compound 108 (reading uncertain) peptide: H[Aib]HGTFTSDYSILLEEQAAREFIEWLLAGGPSSGALQAPGQAPLASHLSTAQTARLSAELHK(Chem. 28)LATLPRTETGSGSP-NH2,15 pM,60 pM,11.4 pM,4.57 pM,2.48 pM,4.01 pM
Compound 104 (reading uncertain) peptide: H[Aib]HGTFTSDYSILLEEQAAREFIEWLLAGGPSSGAGQAPGQAPGASHLSTAQTARLSAELHK(Chem. 27)LATLPRTETGSGSP-NH2,19.1 pM,293 pM,17.3 pM,4.16 pM,1.49 pM,3.57 pM
Compound 105 (reading uncertain) peptide: Y[Aib]EGTFTSDYSILLEEQAAREFIEWLLAGGPSSGALQAPGQAPLASHLSTAQTARLSAELHK(Chem. 28)LATLPRTETGSGSP-NH2,48.9 pM,113 pM,12.5 pM,12.6 pM,2.88 pM,3.08 pM
Compound 103 (reading uncertain) peptide: H[Aib]HGTFTSDYSILLEEQAAREFIEWLLAGGPSSGAGQAPGQAPGASHLSTAQTARLSAELHK(Chem. 28)LATLPRTETGSGSP-NH2,33.1 pM,73.6 pM,13.3 pM,5.24 pM,2.42 pM,3.14 pM
Compound 11 (reading uncertain) peptide: Y[Aib]EGTFTSDYSILLEEQAAREFIEWLLAGGPSK(Chem. 29)GEASELSTAALGRLSAELHELATLPRTETGSGSP-NH2,204 pM,211 pM,58.3 pM,10.4 pM,12.8 pM,1.69 pM
Compound 107 (reading uncertain) peptide: H[Aib]HGTFTSDYSILLEEQAAREFIEWLLAGGPSSGALQAPGQAPGASHLSTAQTARLSAELHRLATLPK(Chem. 28)TETGSGSP-NH2,13.9 pM,93.1 pM,8.76 pM,4.1 pM,3.07 pM,3.87 pM
Compound 109 (not fully specified; reading uncertain) peptide: Y[Aib]EGTFTSDYSILLEEQAAREFIEWLLAGGPSSGAPPPSGGGEASHLSTAQTQRLSAK(Chem. 28)LHRLATLPRTETGSGSP-NH2,94.7 pM,32 pM,17.4 pM,68.9 pM,3.65 pM,7.42 pM
